Legend:
EGFR on F98-EGFR cells [1] = target: T1, EGFR on F98-EGFR cells (UniProt P00533 25-1210, limits assumed); assay: cell-based or functional assay
[2] = target: T2, CD3 on T cells (Jurkat T cells; PBMC-T cells); assay: flow cytometry on Jurkat T cells
T2 construct: whole, on cells; the target is inferred from the anti-CD3 arm of the constructs
Protocol: Jurkat cells (a medium containing 10% FBS) were cultured. 2×10⁵ cells were washed by precooled PBS for 3 times, and blocked by 2% FBS (soluble to PBS). Purified IgFD-11, IgFD-8, IgFD-25, IgFD-26, IgFD-31 or IgFD-36 (aEGFR expressed in a laboratory as a control) were added and incubated for 2 h at 4° C. (cells were gently mixed during incubation), followed by 2% FBS(in PBS) wash. The cells were incubated by FITC anti-human IgGFc (KPL, Inc., MD) for 1 h at 4° C. and subjected to flow cytometry analysis after washing with 2% FBS(in PBS).

EGFR on F98-EGFR cells [3] = target: T1, EGFR on F98-EGFR cells; assay: flow cytometry on F98-EGFR cells
Protocol: F98-EGFR cells (a DMEM containing 10% FBS, 200 μg/ml G418) were cultured. 2×10⁵ cells were washed by precooled PBS for 3 times, and blocked by 2% FBS (soluble to PBS). IgFD-8, IgFD-9, IgFD-10, IgFD-11, IgFD-18, IgFD-19, IgFD-25, IgFD-26 or IgFD-31 (aEGFR expressed in a laboratory as a control) was added and incubated for 2 h at 4° C. (cells were gently mixed during incubation), unbounded antibodies were washed by 2% FBS (soluble to PBS), and then the remaining cells were incubated by FITC anti-human IgGFc(KPL, Inc., MD) for 1 h at 4° C., and washed by 2% FBS (soluble to PBS) for flow cytometry analysis. As shown in FIG. 7 and Table 4, the anti-CD3/anti-EGFR heterodimers in different forms of fusion could bind to EGFR on F98-EGFR cells, and there was no significant difference in the binding capacity of different heterodimers to F98-EGFR.

EGFR on F98-EGFR cells [4] = target: T1, EGFR on F98-EGFR cells; assay: flow cytometry on F98-EGFR cells; protein purified on Protein A resin
EGFR on F98-EGFR cells [5] = target: T1, EGFR on F98-EGFR cells; assay: flow cytometry on F98-EGFR cells; protein purified on CH1 resin
[6] = target: T2, CD3 on T cells (Jurkat T cells; PBMC-T …); assay: flow cytometry on Jurkat T cells; protein purified on Protein A resin
[7] = target: T2, CD3 on T cells (Jurkat T cells; PBMC-T …); assay: flow cytometry on Jurkat T cells; protein purified on CH1 resin

T2 sequence (P07766 23-207): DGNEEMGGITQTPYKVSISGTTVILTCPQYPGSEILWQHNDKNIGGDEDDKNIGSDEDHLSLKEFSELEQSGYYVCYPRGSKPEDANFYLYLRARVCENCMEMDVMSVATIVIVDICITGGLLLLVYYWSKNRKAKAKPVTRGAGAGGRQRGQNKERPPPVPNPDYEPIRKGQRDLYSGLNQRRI

B1: IgFD-25(anti-CD3/EGFR) (bispecific antibody, human IgG1, kappa)
chain 1: EVQLVESGGGLVQPGGSLRLSCAASGFTFNTYAMNWVRQAPGKGLEWVARIRSKYNNYATYYADSVKDRFTISRDDSKNTLYLQMNSLRAEDTAVYYCVRHGNFGNSYVSWFAYWGQGTLVTVSSASTKGPSVFPLAPSSKSTSGGTAALGCLVKDYFPEPVTVSWNSGALTSGVHTFPAVLQSSGLYSLSSVVTVPSSSLGTQTYICNVNHKPSNTKVDKKVEPKSCDKTHTCPPCPAPPVAGPSVFLFPPKPKDTLMISRTPEVTCVVVDVSHEDPEVKFNWYVDGVEVHNAKTKPREEQYNSTYRVVSVLTVLHQDWLNGKEYKCKVSNKGLPSSIEKTISKAKGQPREPQVYTLPPCRDELTKNQVSLWCLVKGFYPSDIAVEWESNGQPENNYKTTPPVLDSDGSFFLYSKLTVDKSRWQQGNVFSCSVMHEALHNHYTQKSLSLSPGK
chain 2: QAVVTQEPSLTVSPGGTVTLTCRSSTGAVTTSNYANWVQQKPDHLFRGLIGGTNKRAPGTPARFSGSLLGDKAALTISGAQPEDEAEYYCALWYSNLWVFGGGTKLTVLKRTVAAPSVFIFPPSDEQLKSGTASVVCLLNNFYPREAKVQWKVDNALQSGNSQESVTEQDSKDSTYSLSSTLTLSKADYEKHKVYACEVTHQGLSSPVTKSFNRGECDKTHTCPPCPAPPVAGPSVFLFPPKPKDTLMISRTPEVTCVVVDVSHEDPEVKFNWYVDGVEVHNAKTKPREEQYNSTYRVVSVLTVLHQDWLNGKEYKCKVSNKGLPSSIEKTISKAKGQPREPQVCTLPPSRDELTKNQVSLSCAVKGFYPSDIAVEWESNGQPENNYKTTPPVLDSDGSFFLVSKLTVDKSRWQQGNVFSCSVMHEALHNHYTQKSLSLSPGKGGSGGSGGGGSGGGGSDIQMTQSPSSLSASVGDRVTITCQASQDISNYLNWYQQKPGKAPKLLIYDASNLETGVPSRFSGSGSGTDFTFTISSLQPEDIATYFCQHFDHLPLAFGGGTKVEIKGGGGSGGGGSGGGGSQVQLQESGPGLVKPSETLSLTCTVSGGSVSSGDYYWTWIRQSPGKGLEWIGHIYYSGNTNYNPSLKSRLTISIDTSKTQFSLKLSSVTAADTAIYYCVRDRVTGAFDIWGQGTMVTVSS
Promotion for the specific killing effect of PBMCs on target cells by heterodimers (EC50, pM); F98-EGFR cells, LDH assay (EGFR on F98-EGFR cells [1]): 11 pM
Kd [2]: 7.72 nM
Kd (EGFR on F98-EGFR cells [3]): 1.12 nM

B2: IgFD-31(anti-CD3/EGFR) (bispecific antibody)
chain 1: EVQLVESGGGLVQPGGSLRLSCAASGFTFNTYAMNWVRQAPGKGLEWVARIRSKYNNYATYYADSVKDRFTISRDDSKNTLYLQMNSLRAEDTAVYYCVRHGNFGNSYVSWFAYWGQGTLVTVSSASTKGPSVFPLAPSSKSTSGGTAALGCLVKDYFPEPVTVSWNSGALTSGVHTFPAVLQSSGLYSLSSVVTVPSSSLGTQTYICNVNHKPSNTKVDKKVEPKSCGGSGAKLAALKAKLAALKGGGGSDKTHTCPPCPAPPVAGPSVFLFPPKPKDTLMISRTPEVTCVVVDVSHEDPEVKFNWYVDGVEVHNAKTKPREEQYNSTYRVVSVLTVLHQDWLNGKEYKCKVSNKGLPSSIEKTISKAKGQPREPQVYTLPPSRDELTKNQVSLTCLVKGFYPSDIAVEWESNGQPENNYKTTPPVLDSDGSFFLYSKLTVDKSRWQQGNVFSCSVMHEALHNHYTQKSLSLSPGK
chain 2: QAVVTQEPSLTVSPGGTVTLTCRSSTGAVTTSNYANWVQQKPDHLFRGLIGGTNKRAPGTPARFSGSLLGDKAALTISGAQPEDEAEYYCALWYSNLWVFGGGTKLTVLKRTVAAPSVFIFPPSDEQLKSGTASVVCLLNNFYPREAKVQWKVDNALQSGNSQESVTEQDSKDSTYSLSSTLTLSKADYEKHKVYACEVTHQGLSSPVTKSFNRGECGGGGSELAALEAELAALEAGGSGDKTHTCPPCPAPPVAGPSVFLFPPKPKDTLMISRTPEVTCVVVDVSHEDPEVKFNWYVDGVEVHNAKTKPREEQYNSTYRVVSVLTVLHQDWLNGKEYKCKVSNKGLPSSIEKTISKAKGQPREPQVYTLPPSRDELTKNQVSLTCLVKGFYPSDIAVEWESNGQPENNYKTTPPVLDSDGSFFLYSKLTVDKSRWQQGNVFSCSVMHEALHNHYTQKSLSLSPGKGGSGGSGGGGSGGGGSDIQMTQSPSSLSASVGDRVTITCQASQDISNYLNWYQQKPGKAPKLLIYDASNLETGVPSRFSGSGSGTDFTFTISSLQPEDIATYFCQHFDHLPLAFGGGTKVEIKGGGGSGGGGSGGGGSQVQLQESGPGLVKPSETLSLTCTVSGGSVSSGDYYWTWIRQSPGKGLEWIGHIYYSGNTNYNPSLKSRLTISIDTSKTQFSLKLSSVTAADTAIYYCVRDRVTGAFDIWGQGTMVTVSS
Kd [2]: 4.16 nM
Kd (EGFR on F98-EGFR cells [3]): 5.47 nM

B3: IgFD-30(anti-CD3/EGFR) (bispecific antibody, human IgG1, kappa)
chain 1: EVQLVESGGGLVQPGGSLRLSCAASGFTFNTYAMNWVRQAPGKGLEWVARIRSKYNNYATYYADSVKDRFTISRDDSKNTLYLQMNSLRAEDTAVYYCVRHGNFGNSYVSWFAYWGQGTLVTVSSASTKGPSVFPLAPSSKSTSGGTAALGCLVKDYFPEPVTVSWNSGALTSGVHTFPAVLQSSGLYSLSSVVTVPSSSLGTQTYICNVNHKPSNTKVDKKVEPKSCDKTHTCPPCPAPPVAGPSVFLFPPKPKDTLMISRTPEVTCVVVDVSHEDPEVKFNWYVDGVEVHNAKTKPREEQYNSTYRVVSVLTVLHQDWLNGKEYKCKVSNKGLPSSIEKTISKAKGQPREPQVYTLPPCRDELTKNQVSLWCLVKGFYPSDIAVEWESNGQPENNYKTTPPVLDSDGSFFLYSKLTVDKSRWQQGNVFSCSVMHEALHNHYTQKSLSLSPGKGGSGGSGGGGSGGGGSDIQMTQSPSSLSASVGDRVTITCQASQDISNYLNWYQQKPGKAPKLLIYDASNLETGVPSRFSGSGSGTDFTFTISSLQPEDIATYFCQHFDHLPLAFGGGTKVEIK
chain 2: QAVVTQEPSLTVSPGGTVTLTCRSSTGAVTTSNYANWVQQKPDHLFRGLIGGTNKRAPGTPARFSGSLLGDKAALTISGAQPEDEAEYYCALWYSNLWVFGGGTKLTVLKRTVAAPSVFIFPPSDEQLKSGTASVVCLLNNFYPREAKVQWKVDNALQSGNSQESVTEQDSKDSTYSLSSTLTLSKADYEKHKVYACEVTHQGLSSPVTKSFNRGECDKTHTCPPCPAPPVAGPSVFLFPPKPKDTLMISRTPEVTCVVVDVSHEDPEVKFNWYVDGVEVHNAKTKPREEQYNSTYRVVSVLTVLHQDWLNGKEYKCKVSNKGLPSSIEKTISKAKGQPREPQVCTLPPSRDELTKNQVSLSCAVKGFYPSDIAVEWESNGQPENNYKTTPPVLDSDGSFFLVSKLTVDKSRWQQGNVFSCSVMHEALHNHYTQKSLSLSPGKGGSGGSGGGGSGGGGSQVQLQESGPGLVKPSETLSLTCTVSGGSVSSGDYYWTWIRQSPGKGLEWIGHIYYSGNTNYNPSLKSRLTISIDTSKTQFSLKLSSVTAADTAIYYCVRDRVTGAFDIWGQGTMVTVSS
notes: (ProA)/(CH1) = purification resin; also called IgFD-30(ProA); IgFD-30(CH1)
Kd (EGFR on F98-EGFR cells [4]): 131 nM
Kd (EGFR on F98-EGFR cells [5]): 86.3 nM
Promotion for the specific killing effect of PBMCs on target cells by heterodimers (EC50, pM); F98-EGFR cells, LDH assay; IgFD-30(CH1) (EGFR on F98-EGFR cells [1]): 435 pM
Promotion for the specific killing effect of PBMCs on target cells by heterodimers (EC50, pM); F98-EGFR cells, LDH assay; IgFD-30(ProA) (EGFR on F98-EGFR cells [1]): 651 pM
Kd [6]: 6.74 nM
Kd [7]: 7.35 nM

B4: IgFD-26(anti-CD3/EGFR) (bispecific antibody, human IgG1, kappa, N297A)
chain 1: not shown
chain 2: QAVVTQEPSLTVSPGGTVTLTCRSSTGAVTTSNYANWVQQKPDHLFRGLIGGTNKRAPGTPARFSGSLLGDKAALTISGAQPEDEAEYYCALWYSNLWVFGGGTKLTVLKRTVAAPSVFIFPPSDEQLKSGTASVVCLLNNFYPREAKVQWKVDNALQSGNSQESVTEQDSKDSTYSLSSTLTLSKADYEKHKVYACEVTHQGLSSPVTKSFNRGECDKTHTCPPCPAPELLGGPSVFLFPPKPKDTLMISRTPEVTCVVVDVSHEDPEVKFNWYVDGVEVHNAKTKPREEQYASTYRVVSVLTVLHQDWLNGKEYKCKVSNKALPAPIEKTISKAKGQPREPQVCTLPPSREEMTKNQVSLSCAVKGFYPSDIAVEWESNGQPENNYKTTPPVLDSDGSFFLVSKLTVDKSRWQQGNVFSCSVMHEALHNHYTQKSLSLSPGKGGSGGSGGGGSGGGGSDIQMTQSPSSLSASVGDRVTITCQASQDISNYLNWYQQKPGKAPKLLIYDASNLETGVPSRFSGSGSGTDFTFTISSLQPEDIATYFCQHFDHLPLAFGGGTKVEIKGGGGSGGGGSGGGGSQVQLQESGPGLVKPSETLSLTCTVSGGSVSSGDYYWTWIRQSPGKGLEWIGHIYYSGNTNYNPSLKSRLTISIDTSKTQFSLKLSSVTAADTAIYYCVRDRVTGAFDIWGQGTMVTVSS
Promotion for the specific killing effect of PBMCs on target cells by heterodimers (EC50, pM); F98-EGFR cells, LDH assay (EGFR on F98-EGFR cells [1]): 105 pM
Kd [2]: 4.23 nM
Kd (EGFR on F98-EGFR cells [3]): 5.28 nM

From US20220089722A1 (NANTONG YICHEN BIOPHARMA, published 2022)
